Assay results published in US20130195871A1 (AbbVie / Abbott, published 2013).
One block for each binder: values may come before it.

Key:
[1] = target: T1, Recombinant Human MSP Receptor ECD-His tag (human, UniProt Q04912 25-957); assay: SPR (Biacore), C-terminal VD;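 further: surface plasmon resonance with DVD-Ig proteins captured on an anti-IgG chip and recombinant antigen flowed over in HBS-EP buffer, Langmuir global fit, KD taken as koff/kon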
T1 construct: extracellular domain; bought reagent; also called RON
Description: (§1) The BIACORE assay (Biacore, Inc, Piscataway, N.J.) determined the affinity of antibodies or DVD-Ig proteins with kinetic measurements of on-rate and off-rate constants. Binding of antibodies or DVD-Ig proteins to a target antigen (for example, a purified recombinant target antigen) was determined by surface plasmon resonance-based measurements with a Biacore® 1000 or 3000 instrument (Biacore AB, Uppsala. Sweden) using running HBS-EP (10 mM HEPES [pH 7.4], 150 mM NaCl, 3 mM EDTA, and 0.005% surfactant P20) at 25° C. […] For example, approximately 5000 RU of goat anti-mouse IgG, (Fcγ), fragment specific polyclonal antibody (Pierce Biotechnology Inc, Rockford, Ill.) diluted in 10 mM sodium acetate (pH 4.5) was directly immobilized across a CM5 research grade biosensor chip using a standard amine coupling kit according to manufacturer's instructions and procedures at 25 μg/ml. Unreacted moieties on the biosensor surface were blocked with ethanolamine. Modified carboxymethyl dextran surface in flowcell 2 and 4 was used as a reaction surface. Unmodified carboxymethyl dextran without goat anti-mouse IgG in flow cell 1 and 3 was used as the reference surface. For kinetic analysis, rate equations derived from the 1:1 Langmuir binding model were fitted simultaneously to association and dissociation phases of all eight injections (using global fit analysis) with the use of Biaevaluation 4.0.1 software. Purified antibodies or DVD-Ig proteins were diluted in HEPES-buffered saline for capture across goat anti-mouse IgG specific reaction surfaces. Antibodies or DVD-Ig proteins to be captured as a ligand (25 μg/ml) were injected over reaction matrices at a flow rate of 5 μl/minute. The association and dissociation rate constants, kₒₙ (M⁻¹s⁻¹) and koff (s⁻¹) were determined under a continuous flow rate of 25 μl/minute. Rate constants were derived by making kinetic binding measurements at different antigen concentrations ranging from 10-200 nM. The equilibrium dissociation constant (M) of the reaction between antibodies or DVD-Ig proteins and the target antigen was then calculated from the kinetic rate constants by the following formula: KD=koff/kₒₙ. Binding was recorded as a function of time and kinetic rate constants were calculated.

[2] = target: T2, Recombinant Human ErbB3/FC Chimera-His tag (human, UniProt P21860 20-643); assay: SPR (Biacore), N-terminal VD;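 further: capture of antibodies or DVD-Ig proteins on an anti-mouse IgG chip surface, recombinant antigen injected at 10–200 nM in HBS-EP running buffer at 25 °C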
T2 construct: bought reagent
Description: as §1

EGFR on the cell surface = target: T3, EGFR on the cell surface (human, UniProt P00533 25-1210); assay: flow cytometry on cells, 2 ug/mL, C-terminal VD;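 further: cells stained for 30 to 60 min on ice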
T3 construct: whole, on cells
Description: Stable cell lines overexpressing a cell-surface antigen of interest or human tumor cell lines were harvested from tissue culture flasks and resuspended in phosphate buffered saline (PBS) containing 5% fetal bovine serum (PBS/FBS). Prior to staining, human tumor cells were incubated on ice with (100 μl) human IgG at 5 μg/ml in PBS/FCS. 1-5×10⁵ cells were incubated with antibody or DVD-Ig (2 μg/mL) in PBS/FBS for 30-60 minutes on ice. […] After 30 minutes incubation on ice, cells were washed twice and resuspended in PBS/FBS. Fluorescence was measured using a Becton Dickinson FACSCalibur (Becton Dickinson, San Jose, Calif.).
The geometric mean is the n root of the multiplication product of n fluorescent signals (a1×a2×a3 . . . an). With log-transformed data the geometric mean is used to normalize the weighting of the data distribution.

Recombinant Human IGF1R = target: T4, Recombinant Human IGF1R (human, UniProt P08069 31-932); assay: SPR (Biacore), N-terminal VD;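 further: capture of antibodies or DVD-Ig proteins on an anti-mouse IgG chip surface, recombinant antigen injected at 10–200 nM in HBS-EP running buffer at 25 °C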
T4 construct: bought reagent
Description: as §1

binding result [1]: no binding (tested: 10-200 nM)
binding result [2]: no binding (tested: 10-200 nM)
B1: DVD2333 (bispecific antibody)
VH: EVQLLESGGGLVQPGGSLRLSCAASGFTFSHYVMAWVRQAPGKGLEWVSSISSSGGWTLYADSVKGRFTISRDNSKNTLYLQMNSLRAEDTAVYYCTRGLKMATIFDYWGQGTLVTVSSASTKGPQVQLQESGPGLVKPSEILSLTCTVSGGSISSHYWSWVRQPPGKGLEWIGYIYYSGSTNYNPSLKSRVTISVDTSKNQFSLNLSSVTAADTAVYYCARIPNYYDRSGYYPGYWYFDLWGRGTLVTVSS
VL: QSALTQPASVSGSPGQSITISCTGTSSDVGSYNVVSWYQQHPGKAPKLIIYEVSQRPSGVSNRFSGSKSGNTASLTISGLQTEDEADYYCCSYAGSSIFVIFGGGTKVTVLGQPKAAPQAVLTQPSSLSAPPGASASLTCTLRSGFNVDSYRISWYQQKPGSPPQYLLRYKSDSDKQQGSGVPSRFSGSKDASANAGILLISGLQSEDEADYYCMIWHSSAWVFGGGTKLTVL
notes: DVD-Ig, outer AB116 / inner AB034

GEO MEAN (EGFR on the cell surface): 320
B2: DVD2299 (bispecific antibody)
VH: EVQLVQSGGGLVKPGGSLRLSCAASGFTFSSYAMHWVRQAPGKGLEWVAVISYDGSNKYYADSVKGRFTISRDNSKNTLYLQMNSLRAEDTAVYYCARFSGWPNNYYYYGMDVWGQGTTVTVSSASTKGPEVQLVESGGGLVQPGGSLRLSCAASGFSLTNYGVHWVRQAPGKGLEWLGVGWSGGNTDYNTPFTSRLTINKDNSKNTVYLQMNSLRAEDTAVYYCARALTWYDYEFAYWGQGTLVTVSS
VL: DVVMTQSPLSLPVTPGEPASISCRSSQSLLHSNGFNYVDWYLQKPGQSPHLLIYFGSYRASGVPDRFSGSGSGTDFTLKISRVEAEDVGVYYCMQALQTPPWTFGQGTKVEIRRTVAAPDILLTQSPGTLSLSPGERATLSCRASQSIYTNIHWYQQKPGQAPRLLIKYASESISGIPDRFSGSGSGTDFTLTISRLEPEDFAVYYCQQNLNWPTTFGQGTKLEIK
notes: DVD-Ig, outer AB005 / inner AB400

GEO MEAN (EGFR on the cell surface): 185
B3: DVD2303 (bispecific antibody)
VH: EVQLVESGGGLVQPGGSLRLSCAASGFTFTDYTMDWVRQAPGKGLEWVADVNPNSGGSIYNQRFKGRFTLSVDRSKNTLYLQMNSLRAEDTAVYYCARNLGPSFYFDYWGQGTLVTVSSASTKGPEVQLVESGGGLVQPGGSLRLSCAASGFSLTNYGVHWVRQAPGKGLEWLGVGWSGGNTDYNTPFTSRLTINKDNSKNTVYLQMNSLRAEDTAVYYCARALTWYDYEFAYWGQGTLVTVSS
VL: DIQMTQSPSSLSASVGDRVTITCKASQDVSIGVAWYQQKPGKAPKLLIYSASYRYTGVPSRFSGSGSGTDFTLTISSLQPEDFATYYCQQYYIYPYTFGQGTKVEIKRTVAAPDILLTQSPGTLSLSPGERATLSCRASQSIYTNIHWYQQKPGQAPRLLIKYASESISGIPDRFSGSGSGTDFTLTISRLEPEDFAVYYCQQNLNWPTTFGQGTKLEIK
notes: DVD-Ig, outer AB080 / inner AB400

binding result [1]: no binding (tested: 10-200 nM)
Kd (Recombinant Human IGF1R): 0.11 nM
koff (Recombinant Human IGF1R): 6.6e-06 s⁻¹
kon (Recombinant Human IGF1R): 60000 M⁻¹ s⁻¹
B4: DVD2325 (bispecific antibody)
VH: EVQLVQSGGGLVKPGGSLRLSCAASGFTFSSFAMHWVRQAPGKGLEWISVIDTRGATYYADSVKGRFTISRDNAKNSLYLQMNSLRAEDTAVYYCARLGNFYYGMDVWGQGTTVTVSSASTKGPEVQLVQSGGGLVKPGGSLRLSCAASGFTFSSYAMHWVRQAPGKGLEWVAVISYDGSNKYYADSVKGRFTISRDNSKNTLYLQMNSLRAEDTAVYYCARFSGWPNNYYYYGMDVWGQGTTVTVSS
VL: EIVLTQSPGTLSVSPGERATLSCRASQSIGSSLHWYQQKPGQAPRLLIKYASQSLSGIPDRFSGSGSGTDFTLTISRLEPEDFAVYYCHQSSRLPHTFGQGTKVEIKRTVAAPDVVMTQSPLSLPVTPGEPASISCRSSQSLLHSNGFNYVDWYLQKPGQSPHLLIYFGSYRASGVPDRFSGSGSGTDFTLKISRVEAEDVGVYYCMQALQTPPWTFGQGTKVEIR
notes: DVD-Ig, outer AB077 / inner AB005

binding result [1]: no binding (tested: 10-200 nM)
Kd (Recombinant Human IGF1R): 1.5 nM
koff (Recombinant Human IGF1R): 7e-05 s⁻¹
kon (Recombinant Human IGF1R): 46000 M⁻¹ s⁻¹
B5: DVD2327 (bispecific antibody)
VH: EVQLLESGGGLVQPGGSLRLSCTASGFTFSSYAMNWVRQAPGKGLEWVSAISGSGGTTFYADSVKGRFTISRDNSRTTLYLQMNSLRAEDTAVYYCAKDLGWSDSYYYYYGMDVWGQGTTVTVSSASTKGPEVQLVQSGGGLVKPGGSLRLSCAASGFTFSSYAMHWVRQAPGKGLEWVAVISYDGSNKYYADSVKGRFTISRDNSKNTLYLQMNSLRAEDTAVYYCARFSGWPNNYYYYGMDVWGQGTTVTVSS
VL: DIQMTQFPSSLSASVGDRVTITCRASQGIRNDLGWYQQKPGKAPKRLIYAASRLHRGVPSRFSGSGSGTEFTLTISSLQPEDFATYYCLQHNSYPCSFGQGTKLEIKRTVAAPDVVMTQSPLSLPVTPGEPASISCRSSQSLLHSNGFNYVDWYLQKPGQSPHLLIYFGSYRASGVPDRFSGSGSGTDFTLKISRVEAEDVGVYYCMQALQTPPWTFGQGTKVEIR
notes: DVD-Ig, outer AB011 / inner AB005

binding result [1]: no binding (tested: 10-200 nM)
Kd [2]: 12 nM
koff [2]: 0.00031 s⁻¹
kon [2]: 25000 M⁻¹ s⁻¹
B6: DVD2321 (bispecific antibody)
VH: EVQLLESGGGLVQPGGSLRLSCAASGFTFSHYVMAWVRQAPGKGLEWVSSISSSGGWTLYADSVKGRFTISRDNSKNTLYLQMNSLRAEDTAVYYCTRGLKMATIFDYWGQGTLVTVSSASTKGPEVQLVQSGGGLVKPGGSLRLSCAASGFTFSSYAMHWVRQAPGKGLEWVAVISYDGSNKYYADSVKGRFTISRDNSKNTLYLQMNSLRAEDTAVYYCARFSGWPNNYYYYGMDVWGQGTTVTVSS
VL: QSALTQPASVSGSPGQSITISCTGTSSDVGSYNVVSWYQQHPGKAPKLIIYEVSQRPSGVSNRFSGSKSGNTASLTISGLQTEDEADYYCCSYAGSSIFVIFGGGTKVTVLGQPKAAPDVVMTQSPLSLPVTPGEPASISCRSSQSLLHSNGFNYVDWYLQKPGQSPHLLIYFGSYRASGVPDRFSGSGSGTDFTLKISRVEAEDVGVYYCMQALQTPPWTFGQGTKVEIR
notes: DVD-Ig, outer AB116 / inner AB005

binding result [1]: no binding (tested: 10-200 nM)
Kd [2]: 5.4 nM
koff [2]: 0.0017 s⁻¹
kon [2]: 310000 M⁻¹ s⁻¹
B7: DVD2319 (bispecific antibody)
VH: EVQLVESGGGLVQPGGSLRLSCAASGFTFSIYSMNWVRQAPGKGLEWVSYISSSSSTIYYADSVKGRFTISRDNAKNSLYLQMNSLRDEDTAVYYCARDRGDFDAFDIWGQGTMVTVSSASTKGPEVQLVQSGGGLVKPGGSLRLSCAASGFTFSSYAMHWVRQAPGKGLEWVAVISYDGSNKYYADSVKGRFTISRDNSKNTLYLQMNSLRAEDTAVYYCARFSGWPNNYYYYGMDVWGQGTTVTVSS
VL: DIQMTQSPSSLSASVGDRVTITCQASQDITNYLNWYQQKPGKAPKLLIYDASNLETGVPSRFSGSGSGTDFTFTISSLQPEDIATYNCQQCENFPITFGQGTRLEIKRTVAAPDVVMTQSPLSLPVTPGEPASISCRSSQSLLHSNGFNYVDWYLQKPGQSPHLLIYFGSYRASGVPDRFSGSGSGTDFTLKISRVEAEDVGVYYCMQALQTPPWTFGQGTKVEIR
notes: DVD-Ig, outer AB063 / inner AB005

binding result [1]: no binding (tested: 10-200 nM)
Kd [2]: 7.7 nM
koff [2]: 0.00046 s⁻¹
kon [2]: 60000 M⁻¹ s⁻¹
B8: DVD2323 (bispecific antibody)
VH: QVQLQQWGAGLLKPSETLSLTCAVYGGSFSGYYWSWIRQPPGKGLEWIGEINHSGSTNYNPSLKSRVTISVETSKNQFSLKLSSVTAADTAVYYCARDKWTWYFDLWGRGTLVTVSSASTKGPEVQLVQSGGGLVKPGGSLRLSCAASGFTFSSYAMHWVRQAPGKGLEWVAVISYDGSNKYYADSVKGRFTISRDNSKNTLYLQMNSLRAEDTAVYYCARFSGWPNNYYYYGMDVWGQGTTVTVSS
VL: DIEMTQSPDSLAVSLGERATINCRSSQSVLYSSSNRNYLAWYQQNPGQPPKLLIYWASTRESGVPDRFSGSGSGTDFTLTISSLQAEDVAVYYCQQYYSTPRTFGQGTKVEIKRTVAAPDVVMTQSPLSLPVTPGEPASISCRSSQSLLHSNGFNYVDWYLQKPGQSPHLLIYFGSYRASGVPDRFSGSGSGTDFTLKISRVEAEDVGVYYCMQALQTPPWTFGQGTKVEIR
notes: DVD-Ig, outer AB062 / inner AB005
